Data on one protein can be found in publication PMC5975648.

A short description of this data set: confocal fluorescence microscopy, ER and mitochondria markers. The note with it: glycan lost; control: Psd1-EGFP.

B1: Psd1: Psd1(N34Q)-EGFP (protein)
parent chain: MSIMPVKNALAQGRTLLMGRMPAVKFSTRMQLRNRTAVLWNRKFSTRLFVQQRRSSGEIVDRAKAAAANSGRKQVSMKWVVLTSFTIVLGTILLVSRNDSTEEDATEGKKGRRTRKIKIFNNNWLFFCYSTLPLNAMSRLWGQVNSLTLPIWVRPWGYRLYSFLFGVNLDEMEDPDLTHYANLSEFFYRNIKPGTRPVAQGEDVIASPSDGKILQVGIINSETGEIEQVKGMTYSIKEFLGTHSHPLMSKSASSLDLTSDEEKHREFARVNRIQLAGSEDTEQPLLNFKNEGDQSVREFKPSVSKNIHLLSQLSLNYFSNGFSCSEPHDTELFFAVIYLAPGDYHHFHSPVDWVCKVRRHFPGDLFSVAPYFQRNFPNLFVLNERVALLGSWKYGFFSMTPVGATNVGSIKLNFDQEFVTNSKSDKHLEPHTCYQAVYENASKILGGMPLVKGEEMGGFELGSTVVLCFEAPTEFKFDVRVGDKVKMGQKLGIIGKNDLK
B1: the localisation_or_trafficking result is given as “no change”.
